Common to all, as to experiment: MST; 2-hep HMM with C-terminal eGFP (fluorescence followed) titrated with increasing concentrations of unlabeled proximal S2; 23 °C; 10 mM imidazole pH 7.5, 100 mM KCl, 1 mM EDTA, 2 mM MgCl2, 1 mM DTT, 500 mM ADP, 0.05% Tween; MST power 60; isotherms fitted with the Hill equation
The target in assay [1] is D382Y recombinant human β-cardiac myosin 2-hep HMM (UniProt P08590).
Assay [2] deals with R719W recombinant human β-cardiac myosin 2-hep HMM (UniProt P08590).
The target in assay [3] is WT recombinant human β-cardiac myosin 2-hep HMM (UniProt P08590).

With “proximal S2 (amino acids 839–968) of human β-cardiac myosin (from UniProt P12883 839-968) (domain or fragment)”, the values for the dissociation constant (Kd) in assay [1], in assay [2] and in assay [3] were 45 µM, 58 µM and 37 µM, respectively.

Values taken from paper PMC6582153.
